The record followed here is US20080267974A1 (SCHERING, published 2008).

In assay [1] the target is T1, tumor necrosis factor alpha (TNFα) (human, UniProt P01375 77-233). The assay can be described thus: affinity by IC50 ELISA (so named in paragraph 380). A general note: ELISA stands for enzyme-linked immunosorbent assay.
For assay [2], the target named is T1, tumor necrosis factor alpha (TNFα). As to the kind of experiment: affinity by IC50 ELISA (so named in paragraph 380). The source holds these as a separate data set.
The target is the same in assay [3]. As to the kind of experiment: cell-based or functional assay.
The target is the same in assay [4]. The assay can be described thus: affinity by IC50 ELISA (so named in paragraph 380). The source holds these as a separate data set.
Assay [5] has the same target. As to the kind of experiment: affinity by IC50 ELISA (so named in paragraph 380). The source holds these as a separate data set.
For assay [6] the target is unchanged. The assay can be described thus: affinity by IC50 ELISA (so named in paragraph 380). The source holds these as a separate data set.
The target is the same in assay [7]. The assay can be described thus: affinity by IC50 ELISA (so named in paragraph 380). This is another data set of the same source.
The target is the same in assay [8]. The assay can be described thus: affinity by IC50 ELISA (so named in paragraph 380). The source holds these as a separate data set.
For assay [9] the target is unchanged. The assay can be described thus: Biacore (SPR); MAb captured by immobilised goat anti-human IgG polyclonal antibody, TNFα as analyte. For orientation: SPR reads the build-up and loss of mass on a sensor chip optically.
The target is the same in assay [10]. The assay can be described thus: affinity by IC50 ELISA (so named in paragraph 380). The source holds these as a separate data set.

Numbering of substitutions follows the chain as printed. Where “and” joins values, the source holds several entries; their conditions need not be identical. Identical values can stand only once. Like-named read-outs stand apart in the source and are kept apart here.

T1 sequence (P01375 77-233 limits assumed): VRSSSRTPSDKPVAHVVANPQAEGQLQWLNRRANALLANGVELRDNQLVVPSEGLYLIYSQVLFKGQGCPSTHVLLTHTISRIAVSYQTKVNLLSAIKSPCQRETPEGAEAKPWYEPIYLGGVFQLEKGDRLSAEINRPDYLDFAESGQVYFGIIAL

B1: MAb 812 (antibody, V domains shown)
VH: EVQLLESGGGLIQPGGSLRLSCAASGFTVSSNYMSWVRQAPGKGLEWVSVIYSGGRTYYADSVKGRFTISRDSSKNTLYLQMNSLRAEDTAVYYCARNYYGSTYDYWGQGTLVTVSS
VL: EIVLTQSPVTLSVPPGERASLSCRASQNIYTAVAWYQQKPGQAPRLLIYGASTRATGIPARFSGGGSGTDYTLTISSLESEDFAVYHCQQYFSWPLTFGGGTKLEIK
notes: IgG1/kappa, CHO; also called H1192/L308
On to B1, for which the Affinity in assay [1] and in [2] was 0.32 nM throughout.

B2: MAb 1896 (antibody, V domains shown)
VH: EVQLVESGGGLIQPGGSLRLSCAVSGLNVSRDYMSWVRQAPGKGLEWISVIYRGGATMYADSVKGRFTISRDTSKNTVFLQMSRLKVADTAVYYCARNYYGSTLDYWGQGTLVTVSS
VL: B1 VL with G50N, Y91W, F92H
notes: IgG1/kappa, CHO; also called H1685/L459
On to B2, for which, in [3], the “IC50, TNFα cytotoxicity assay (WEHI-13VAR cells)” value (from here on “IC50, TNFα cytotoxicity assay”) is 0.79 nM and 0.9 nM. Moreover, the Affinity in [4], in assay [1] and in assay [5] was 0.08 nM each time.

B3: MAb 1850 (antibody, V domains shown)
VH: EVQLLESGGGLIQPGGSLRLSCAASGFTVGNNYMSWVRQAPGKGLEWVSVIYSAGSTYYADSVKGRFIISRDNSKDTVYLQMNSLRVDDTAVYYCARNYYGSTHDYWGQGTLVTVSS
VL: B1 VL with Y91W, F92H
notes: IgG1/kappa, CHO; also called H1727/L332
Take B3: the Affinity in assay [6] and in [1] was 0.59 nM throughout.

B4: MAb 1714 (antibody, V domains shown)
VH: B2 VH with L104F
VL: B1 VL with Y91W, F92H
notes: IgG1/kappa, CHO; also called H1678/L332
On to B4, for which the “IC50, TNFα cytotoxicity assay” value in assay [3] stood at 1.3 nM. Also, the Affinity in assay [1] and in assay [7] was 0.16 nM throughout.

B5: MAb 1067 (antibody, V domains shown)
VH: B1 VH with Y104L
VL: B1 VL with Y91W, F92H
notes: IgG1/kappa, CHO; also called H1487/L332
Take B5: the Affinity in assay [1] and in assay [8] was 0.12 nM in each case.

B6: MAb 1874 (antibody, V domains shown)
VH: B3 VH with H104M
VL: B1 VL with Y91W, F92H
notes: IgG1/kappa, CHO; also called H1725/L332
B6: the Affinity in [6] and in assay [1] was 0.38 nM in each case.

B7: MAb 1895 (antibody, V domains shown)
VH: B2 VH with L104H
VL: B1 VL with G50N, Y91W, F92H
notes: IgG1/kappa, CHO; also called H1596/L459
Turning to B7, the “IC50, TNFα cytotoxicity assay” value in assay [3] was 0.89 nM. Besides, the Affinity in assay [4] and in assay [1] was 0.09 nM each time.

B8: MAb 1988 (antibody, V domains shown)
VH: B2 VH with G54I
VL: B1 VL with G50N, Y91W, F92H
notes: IgG1/kappa, CHO; also called H1813/L459
On to B8, for which the “IC50, TNFα cytotoxicity assay” value in assay [3] came out at 0.2 nM. Further, the Affinity in assay [1] and in [5] was 0.04 nM in each case.

B9: MAb 1371 (antibody, V domains shown)
VH: B2 VH with L104H
VL: B1 VL with Y91W, F92H
notes: IgG1/kappa, CHO; also called H1596/L332
On to B9, for which, in assay [3], the “IC50, TNFα cytotoxicity assay” value is 2 nM and 3.08 nM. Moreover, the Affinity in assay [4], in assay [1] and in [7] was 0.2 nM each time.

B10: MAb 1852 (antibody, V domains shown)
VH: B3 VH with H104L
VL: B1 VL with Y91W, F92H
notes: IgG1/kappa, CHO; also called H1729/L332
Regarding B10, the Affinity in [6] and in assay [1] was 0.41 nM throughout.

B11: MAb 2006 (antibody, V domains shown)
VH: B2 VH with M58H
VL: B1 VL with G50N, Y91W, F92H
notes: IgG1/kappa, CHO; also called H1831/L459
With B11, the “IC50, TNFα cytotoxicity assay” value in [3] was 0.3 nM. In addition, the Affinity in [1] and in [5] was 0.04 nM each time.

B12: MAb 855 (antibody, V domains shown)
VH: B1 VH
VL: B1 VL with Y91W, F92H
notes: IgG1/kappa, CHO; also called H1192/L332
B12: the “IC50, TNFα cytotoxicity assay” value in [3] turned out to be 3.5 nM. In addition, the Affinity in assay [1] and in [2] was 0.25 nM throughout.

B13: MAb 1131 (antibody, V domains shown)
VH: B1 VH with Y104H
VL: B1 VL with Y91W, F92H
notes: IgG1/kappa, CHO; also called H1518/L332
Regarding B13, the Affinity in assay [1] and in assay [8] was 0.13 nM each time.

B14: MAb 815 (antibody, V domains shown)
VH: B1 VH
VL: B1 VL with F92H, S93A
notes: IgG1/kappa, CHO; also called H1192/L311
On to B14, for which the Affinity in assay [1] and in assay [2] was 0.36 nM throughout.

B15: MAb 2071 (antibody, V domains shown)
VH: B2 VH with A56V
VL: B1 VL with V9A, P14S, G50N, S52A, Y91W, F92H
notes: IgG1/kappa, CHO; also called H1844/L472
For B15, the “IC50, TNFα cytotoxicity assay” value in assay [3] is 0.03 nM and 0.04 nM. Further, in [9], the Ka was 1.77e+11 M⁻¹, binding was put at a Kd of 0.0057 nM, the koff came out at 3.91e-05 s⁻¹ and the kon came to 6.92e+06 M⁻¹ s⁻¹. Moreover, the Affinity in [1] is 0.01 nM. In addition, the Affinity in assay [10] is 0.01 nM.

B16: MAb 1999 (antibody, V domains shown)
VH: B2 VH with A56I
VL: B1 VL with G50N, Y91W, F92H
notes: IgG1/kappa, CHO; also called H1824/L459
In the case of B16, the “IC50, TNFα cytotoxicity assay” value in [3] turned out to be 0.3 nM. For the same molecule, the Affinity in [1] and in [5] was 0.04 nM each time.

B17: MAb 1851 (antibody, V domains shown)
VH: B3 VH with H104F
VL: B1 VL with Y91W, F92H
notes: IgG1/kappa, CHO; also called H1728/L332
B17: the Affinity in assay [6] and in assay [1] was 0.26 nM each time.

B18: MAb 1042 (antibody, V domains shown)
VH: B1 VH with Y104F
VL: B1 VL with Y91W, F92H
notes: IgG1/kappa, CHO; also called H1482/L332
For B18, the Affinity in assay [1] and in [8] was 0.07 nM in each case.

B19: MAb 1043 (antibody, V domains shown)
VH: B1 VH with Y104M
VL: B1 VL with Y91W, F92H
notes: IgG1/kappa, CHO; also called H1483/L332
Consider B19, for which the Affinity in [1] and in assay [8] was 0.31 nM each time.

B20: MAb 2060 (antibody, V domains shown)
VH: B2 VH with A56V
VL: B1 VL with V9A, P14S, G50N, Y91W, F92H
notes: IgG1/kappa, CHO; also called H1844/L471
Turning to B20, in assay [3], the “IC50, TNFα cytotoxicity assay” value was 0.14 nM. In addition, the Affinity in [1] and in assay [10] was 0.02 nM each time.

B21: MAb 1210 (antibody, V domains shown)
VH: B1 VH with Y104V
VL: B1 VL with Y91W, F92H
notes: IgG1/kappa, CHO; also called H1557/L332
Take B21: the Affinity in assay [1] and in assay [8] was 0.14 nM each time.

B22: MAb 1777 (antibody, V domains shown)
VH: B2 VH with L104I
VL: B1 VL with Y91W, F92H
notes: IgG1/kappa, CHO; also called H1684/L332
As for B22, the “IC50, TNFα cytotoxicity assay” value in [3] is 7 nM. In addition, the Affinity in assay [1] and in assay [7] was 0.18 nM in each case.

B23: MAb 1989 (antibody, V domains shown)
VH: B2 VH with G54V
VL: B1 VL with G50N, Y91W, F92H
notes: IgG1/kappa, CHO; also called H1814/L459
As for B23, the “IC50, TNFα cytotoxicity assay” value in assay [3] is 0.2 nM. For the same molecule, the Affinity in [1] and in [5] was 0.05 nM throughout.

B24: MAb 1780 (antibody, V domains shown)
VH: B2 VH
VL: B1 VL with Y91W, F92H
notes: IgG1/kappa, CHO; also called H1685/L332
Regarding B24, the “IC50, TNFα cytotoxicity assay” value in assay [3] is 1.6 nM and 3.18 nM. Moreover, the Affinity in assay [4], in assay [1] and in assay [7] was 0.23 nM throughout.

B25: MAb 2019 (antibody, V domains shown)
VH: B2 VH with A56V
VL: B1 VL with G50N, Y91W, F92H
notes: IgG1/kappa, CHO; also called H1844/L459
Turning to B25, in assay [3], the “IC50, TNFα cytotoxicity assay” value came out at 0.3 nM. For the same molecule, the Affinity in assay [1] and in [5] was 0.04 nM in each case.

B26: MAb 813 (antibody, V domains shown)
VH: B1 VH
VL: B1 VL with F92M
notes: IgG1/kappa, CHO; also called H1192/L309
With B26, the Affinity in [1] and in assay [2] was 0.42 nM each time.

B27: MAb 1775 (antibody, V domains shown)
VH: B2 VH with L104M
VL: B1 VL with Y91W, F92H
notes: IgG1/kappa, CHO; also called H1687/L332
As for B27, in assay [3], the “IC50, TNFα cytotoxicity assay” value was 6.5 nM. The Affinity in [1] and in [7] was 0.22 nM in each case.

As usually defined, the Kd is the free concentration of one partner at which half of the binding sites on the other are occupied at equilibrium, for simple one-to-one binding. Higher therefore signals a looser complex. Broadly, the koff is a measure of how fast the partners let go of each other. The kon is the second-order rate constant of association. Low values mean slow association, high ones fast association.
